Measured values as given in patent publication US20140087995A1 (published 2014).
Numbered stars: 1 amine (or outer) side, 2 acyl side, 3 side chain; on linkers, the order of the positions; unused ones are H or OH. Bridge positions count the residues as written; N and C are the ends. Side chains are listed from the residue outwards. Ends that are not written are not given here. * marks the point of attachment. C20 diacid = O=C(O)CCCCCCCCCCCCCCCCCCC(=O)*; γGlu = O=C(O)[C@H](CCC(=O)[*:2])N[*:1]; AEEA = NCCOCCOCC(=O)O

Assays:
rat calcitonin receptor [1] = target: T1, rat calcitonin receptor (rat, UniProt P32214 25-516); assay: SPA competition with 125I-calcitonin, membranes with rat calcitonin receptor (Assay VIII)
T1 construct: whole, on cells; Used as membranes prepared from the transfected cells; also called rCTR; rCT
T1 sequence (looked up): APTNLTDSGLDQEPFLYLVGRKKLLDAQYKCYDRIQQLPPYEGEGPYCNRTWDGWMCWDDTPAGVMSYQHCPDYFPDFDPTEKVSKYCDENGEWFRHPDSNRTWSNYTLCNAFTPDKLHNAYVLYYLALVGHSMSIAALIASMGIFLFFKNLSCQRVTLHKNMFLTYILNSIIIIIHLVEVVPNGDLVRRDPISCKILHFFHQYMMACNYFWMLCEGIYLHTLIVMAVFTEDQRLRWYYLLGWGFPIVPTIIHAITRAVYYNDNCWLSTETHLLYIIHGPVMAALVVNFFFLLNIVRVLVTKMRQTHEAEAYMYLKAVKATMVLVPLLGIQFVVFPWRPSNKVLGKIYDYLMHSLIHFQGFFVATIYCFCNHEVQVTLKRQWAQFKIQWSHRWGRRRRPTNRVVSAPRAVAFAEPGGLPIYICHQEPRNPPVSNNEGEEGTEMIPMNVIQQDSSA

rat calcitonin receptor [2] = target: T1, rat calcitonin receptor; assay: ratio of binding IC50 at rat calcitonin receptor to IC50 at rat amylin receptor (reference)
[3] = target: T2, human calcitonin receptor (human, UniProt P30988 25-474); assay: ratio of binding IC50 at human calcitonin receptor to IC50 at human amylin receptor (reference)
T2 construct: whole, on cells; Used as membranes prepared from the transfected cells; also called hCTR; hCT
T2 sequence (looked up): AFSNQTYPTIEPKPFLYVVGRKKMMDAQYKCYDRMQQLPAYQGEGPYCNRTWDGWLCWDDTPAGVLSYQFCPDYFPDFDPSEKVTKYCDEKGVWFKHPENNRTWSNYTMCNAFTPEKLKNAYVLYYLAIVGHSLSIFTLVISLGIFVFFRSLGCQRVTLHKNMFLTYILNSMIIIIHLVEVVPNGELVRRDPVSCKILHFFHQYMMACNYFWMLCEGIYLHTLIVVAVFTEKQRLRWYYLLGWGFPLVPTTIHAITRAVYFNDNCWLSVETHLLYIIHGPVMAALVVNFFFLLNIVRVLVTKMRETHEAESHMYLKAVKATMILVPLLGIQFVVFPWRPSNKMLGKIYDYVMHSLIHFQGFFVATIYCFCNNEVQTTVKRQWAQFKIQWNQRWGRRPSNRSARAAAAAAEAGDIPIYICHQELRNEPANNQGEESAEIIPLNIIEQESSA
Procedure, shortened: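 Competition binding by SPA uses membrane preparations (35 ng/μL final) in pH 7.4 Hepes buffer with 1 mM CaCl2 and 5 mM MgCl₂. Incubation lasts 120 min at 25° C, and IC₅₀ comes from one-site fitting.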

[4] = target: T3, rat amylin receptor (rat calcitonin receptor with rat RAMP 3) (rat, UniProt P32214 25-516; Q9JJ73 23-147); assay: SPA competition with 125I-rat amylin, membranes with rat calcitonin receptor + rat RAMP3 (Assay VI)
T3 construct: whole, on cells; Used as membranes prepared from the transfected cells; also called rAmylin-R; rAmylin
T3 sequence (looked up) 1: T1 sequence (looked up)
T3 sequence (looked up) 2: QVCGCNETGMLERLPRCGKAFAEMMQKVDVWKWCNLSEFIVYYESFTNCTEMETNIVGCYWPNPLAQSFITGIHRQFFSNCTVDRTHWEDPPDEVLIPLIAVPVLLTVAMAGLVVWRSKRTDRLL

B1: N^ε1-[2-[2-[2-[[2-[2-[2-[[(4S)-4-carboxy-4-(19-carboxynonadecanoylamino)butanoyl]amino]ethoxy]ethoxy]acetyl]amino]ethoxy]ethoxy]acetyl]-[Arg17,Pro21,Pro27,Pro31 … (peptide)
peptide: K([AEEA-AEEA-γGlu-C20 diacid])CNTATCATQRLANFLRHSSPNFGAIPSSTPVGSNTY-NH2
modifications: disulfide 2-7; N-terminus assumed
SMILES: CC[C@H](C)[C@H](NC(=O)[C@H](C)NC(=O)CNC(=O)[C@H](Cc1ccccc1)NC(=O)[C@H](CC(N)=O)NC(=O)[C@@H]1CCCN1C(=O)[C@H](CO)NC(=O)[C@H](CO)NC(=O)[C@H](Cc1c[nH]cn1)NC(=O)[C@H](CCCNC(=N)N)NC(=O)[C@H](CC(C)C)NC(=O)[C@H](Cc1ccccc1)NC(=O)[C@H](CC(N)=O)NC(=O)[C@H](C)NC(=O)[C@H](CC(C)C)NC(=O)[C@H](CCCNC(=N)N)NC(=O)[C@H](CCC(N)=O)NC(=O)[C@@H](NC(=O)[C@H](C)NC(=O)[C@@H]1CSSC[C@H](NC(=O)[C@@H](N)CCCCNC(=O)COCCOCCNC(=O)COCCOCCNC(=O)CC[C@H](NC(=O)CCCCCCCCCCCCCCCCCCC(=O)O)C(=O)O)C(=O)N[C@@H](CC(N)=O)C(=O)N[C@@H]([C@@H](C)O)C(=O)N[C@@H](C)C(=O)N[C@@H]([C@@H](C)O)C(=O)N1)[C@@H](C)O)C(=O)N1CCC[C@H]1C(=O)N[C@@H](CO)C(=O)N[C@@H](CO)C(=O)N[C@H](C(=O)N1CCC[C@H]1C(=O)N[C@H](C(=O)NCC(=O)N[C@@H](CO)C(=O)N[C@@H](CC(N)=O)C(=O)N[C@H](C(=O)N[C@@H](Cc1ccc(O)cc1)C(N)=O)[C@@H](C)O)C(C)C)[C@@H](C)O
notes: Analogue of human amylin; disulfide and C-terminal amide as told for h-amylin; also called compound 96
IC50 (rat calcitonin receptor [1]): 62.2 nM | Ratio rCT/rAmylin binding (rat calcitonin receptor [2]): 118 | Ratio hCT/hAmylin binding [3]: 79.6 | IC50 [4]: 0.529 nM

B2: N^ε1-[2-[2-[2-[[2-[2-[2-[[(4S)-4-carboxy-4-(19-carboxynonadecanoylamino)butanoyl]amino]ethoxy]ethoxy]acetyl]amino]ethoxy]ethoxy]acetyl]-[Arg17,Pro21,Pro27,Pro34 … (peptide)
peptide: K([AEEA-AEEA-γGlu-C20 diacid])CNTATCATQRLANFLRHSSPNFGAIPSSTNVGPNTY-NH2
modifications: disulfide 2-7; N-terminus assumed
SMILES: CC[C@H](C)[C@H](NC(=O)[C@H](C)NC(=O)CNC(=O)[C@H](Cc1ccccc1)NC(=O)[C@H](CC(N)=O)NC(=O)[C@@H]1CCCN1C(=O)[C@H](CO)NC(=O)[C@H](CO)NC(=O)[C@H](Cc1c[nH]cn1)NC(=O)[C@H](CCCNC(=N)N)NC(=O)[C@H](CC(C)C)NC(=O)[C@H](Cc1ccccc1)NC(=O)[C@H](CC(N)=O)NC(=O)[C@H](C)NC(=O)[C@H](CC(C)C)NC(=O)[C@H](CCCNC(=N)N)NC(=O)[C@H](CCC(N)=O)NC(=O)[C@@H](NC(=O)[C@H](C)NC(=O)[C@@H]1CSSC[C@H](NC(=O)[C@@H](N)CCCCNC(=O)COCCOCCNC(=O)COCCOCCNC(=O)CC[C@H](NC(=O)CCCCCCCCCCCCCCCCCCC(=O)O)C(=O)O)C(=O)N[C@@H](CC(N)=O)C(=O)N[C@@H]([C@@H](C)O)C(=O)N[C@@H](C)C(=O)N[C@@H]([C@@H](C)O)C(=O)N1)[C@@H](C)O)C(=O)N1CCC[C@H]1C(=O)N[C@@H](CO)C(=O)N[C@@H](CO)C(=O)N[C@H](C(=O)N[C@@H](CC(N)=O)C(=O)N[C@H](C(=O)NCC(=O)N1CCC[C@H]1C(=O)N[C@@H](CC(N)=O)C(=O)N[C@H](C(=O)N[C@@H](Cc1ccc(O)cc1)C(N)=O)[C@@H](C)O)C(C)C)[C@@H](C)O
notes: Analogue of human amylin; disulfide and C-terminal amide as told for h-amylin; also called compound 98
IC50 (rat calcitonin receptor [1]): 24.1 nM | Ratio rCT/rAmylin binding (rat calcitonin receptor [2]): 176 | Ratio hCT/hAmylin binding [3]: 74.1 | IC50 [4]: 0.137 nM

B3: N^ε1N^ε1-[(4S)-4-carboxy-4-(19-carboxynonadecanoylamino)butanoyl]-[His14,Arg17,Pro21,Pro27,Pro34]-h-amylin (peptide)
peptide: K([γGlu-C20 diacid])CNTATCATQRLAHFLRHSSPNFGAIPSSTNVGPNTY-NH2
modifications: disulfide 2-7; N-terminus assumed
SMILES: CC[C@H](C)[C@H](NC(=O)[C@H](C)NC(=O)CNC(=O)[C@H](Cc1ccccc1)NC(=O)[C@H](CC(N)=O)NC(=O)[C@@H]1CCCN1C(=O)[C@H](CO)NC(=O)[C@H](CO)NC(=O)[C@H](Cc1c[nH]cn1)NC(=O)[C@H](CCCNC(=N)N)NC(=O)[C@H](CC(C)C)NC(=O)[C@H](Cc1ccccc1)NC(=O)[C@H](Cc1c[nH]cn1)NC(=O)[C@H](C)NC(=O)[C@H](CC(C)C)NC(=O)[C@H](CCCNC(=N)N)NC(=O)[C@H](CCC(N)=O)NC(=O)[C@@H](NC(=O)[C@H](C)NC(=O)[C@@H]1CSSC[C@H](NC(=O)[C@@H](N)CCCCNC(=O)CC[C@H](NC(=O)CCCCCCCCCCCCCCCCCCC(=O)O)C(=O)O)C(=O)N[C@@H](CC(N)=O)C(=O)N[C@@H]([C@@H](C)O)C(=O)N[C@@H](C)C(=O)N[C@@H]([C@@H](C)O)C(=O)N1)[C@@H](C)O)C(=O)N1CCC[C@H]1C(=O)N[C@@H](CO)C(=O)N[C@@H](CO)C(=O)N[C@H](C(=O)N[C@@H](CC(N)=O)C(=O)N[C@H](C(=O)NCC(=O)N1CCC[C@H]1C(=O)N[C@@H](CC(N)=O)C(=O)N[C@H](C(=O)N[C@@H](Cc1ccc(O)cc1)C(N)=O)[C@@H](C)O)C(C)C)[C@@H](C)O
notes: Analogue of human amylin; disulfide and C-terminal amide as told for h-amylin; also called compound 67
IC50 (rat calcitonin receptor [1]): 14.7 nM | Ratio rCT/rAmylin binding (rat calcitonin receptor [2]): 85.4 | Ratio hCT/hAmylin binding [3]: 51.6 | IC50 [4]: 0.172 nM

B4: N^ε1-[(4S)-4-carboxy-4-(19-carboxynonadecanoylamino)butanoyl]-[Ala14,Arg17,Pro21,Pro27,Pro34]-h-amylin (peptide)
peptide: K([γGlu-C20 diacid])CNTATCATQRLAAFLRHSSPNFGAIPSSTNVGPNTY-NH2
modifications: disulfide 2-7; N-terminus assumed
SMILES: CC[C@H](C)[C@H](NC(=O)[C@H](C)NC(=O)CNC(=O)[C@H](Cc1ccccc1)NC(=O)[C@H](CC(N)=O)NC(=O)[C@@H]1CCCN1C(=O)[C@H](CO)NC(=O)[C@H](CO)NC(=O)[C@H](Cc1c[nH]cn1)NC(=O)[C@H](CCCNC(=N)N)NC(=O)[C@H](CC(C)C)NC(=O)[C@H](Cc1ccccc1)NC(=O)[C@H](C)NC(=O)[C@H](C)NC(=O)[C@H](CC(C)C)NC(=O)[C@H](CCCNC(=N)N)NC(=O)[C@H](CCC(N)=O)NC(=O)[C@@H](NC(=O)[C@H](C)NC(=O)[C@@H]1CSSC[C@H](NC(=O)[C@@H](N)CCCCNC(=O)CC[C@H](NC(=O)CCCCCCCCCCCCCCCCCCC(=O)O)C(=O)O)C(=O)N[C@@H](CC(N)=O)C(=O)N[C@@H]([C@@H](C)O)C(=O)N[C@@H](C)C(=O)N[C@@H]([C@@H](C)O)C(=O)N1)[C@@H](C)O)C(=O)N1CCC[C@H]1C(=O)N[C@@H](CO)C(=O)N[C@@H](CO)C(=O)N[C@H](C(=O)N[C@@H](CC(N)=O)C(=O)N[C@H](C(=O)NCC(=O)N1CCC[C@H]1C(=O)N[C@@H](CC(N)=O)C(=O)N[C@H](C(=O)N[C@@H](Cc1ccc(O)cc1)C(N)=O)[C@@H](C)O)C(C)C)[C@@H](C)O
notes: Analogue of human amylin; disulfide and C-terminal amide as told for h-amylin; also called compound 94
IC50 (rat calcitonin receptor [1]): 111 nM | Ratio rCT/rAmylin binding (rat calcitonin receptor [2]): 280 | Ratio hCT/hAmylin binding [3]: 46.3 | IC50 [4]: 0.397 nM

B5: N^-1-[(4S)-4-carboxy-4-(19-carboxynonadecanoylamino)butanoyl]-Gly[Arg1,His14,Arg17,Pro21,Pro27,His34]-h-amylin (peptide)
peptide: {C20 diacid-γGlu}-GRCNTATCATQRLAHFLRHSSPNFGAIPSSTNVGHNTY-NH2
modifications: disulfide 3-8
SMILES: CC[C@H](C)[C@H](NC(=O)[C@H](C)NC(=O)CNC(=O)[C@H](Cc1ccccc1)NC(=O)[C@H](CC(N)=O)NC(=O)[C@@H]1CCCN1C(=O)[C@H](CO)NC(=O)[C@H](CO)NC(=O)[C@H](Cc1c[nH]cn1)NC(=O)[C@H](CCCNC(=N)N)NC(=O)[C@H](CC(C)C)NC(=O)[C@H](Cc1ccccc1)NC(=O)[C@H](Cc1c[nH]cn1)NC(=O)[C@H](C)NC(=O)[C@H](CC(C)C)NC(=O)[C@H](CCCNC(=N)N)NC(=O)[C@H](CCC(N)=O)NC(=O)[C@@H](NC(=O)[C@H](C)NC(=O)[C@@H]1CSSC[C@H](NC(=O)[C@H](CCCNC(=N)N)NC(=O)CNC(=O)CC[C@H](NC(=O)CCCCCCCCCCCCCCCCCCC(=O)O)C(=O)O)C(=O)N[C@@H](CC(N)=O)C(=O)N[C@@H]([C@@H](C)O)C(=O)N[C@@H](C)C(=O)N[C@@H]([C@@H](C)O)C(=O)N1)[C@@H](C)O)C(=O)N1CCC[C@H]1C(=O)N[C@@H](CO)C(=O)N[C@@H](CO)C(=O)N[C@H](C(=O)N[C@@H](CC(N)=O)C(=O)N[C@H](C(=O)NCC(=O)N[C@@H](Cc1c[nH]cn1)C(=O)N[C@@H](CC(N)=O)C(=O)N[C@H](C(=O)N[C@@H](Cc1ccc(O)cc1)C(N)=O)[C@@H](C)O)C(C)C)[C@@H](C)O
notes: Analogue of human amylin extended by Gly at the N-terminus; disulfide and C-terminal amide as told for h-amylin; also called compound 100
IC50 (rat calcitonin receptor [1]): 311 nM | Ratio rCT/rAmylin binding (rat calcitonin receptor [2]): 27.7 | Ratio hCT/hAmylin binding [3]: 65.3 | IC50 [4]: 11.2 nM
